Key:
[1] = target: T1, IolQ-His6 (DegA) (Bacillus subtilis 168) (UniProt P37947); assay: EMSA; conditions: 10 mM Tris-HCl pH 8.0, 1 mM DTT, 10 mM KCl, 5 mM MgCl2, 10% glycerol, 5 ug/ml poly d(I-C), 50 ug/ml BSA, 37 C, 30 min; DNA 0.155 pmol in 0.02 ml (EMSA) or …
T1 sequence: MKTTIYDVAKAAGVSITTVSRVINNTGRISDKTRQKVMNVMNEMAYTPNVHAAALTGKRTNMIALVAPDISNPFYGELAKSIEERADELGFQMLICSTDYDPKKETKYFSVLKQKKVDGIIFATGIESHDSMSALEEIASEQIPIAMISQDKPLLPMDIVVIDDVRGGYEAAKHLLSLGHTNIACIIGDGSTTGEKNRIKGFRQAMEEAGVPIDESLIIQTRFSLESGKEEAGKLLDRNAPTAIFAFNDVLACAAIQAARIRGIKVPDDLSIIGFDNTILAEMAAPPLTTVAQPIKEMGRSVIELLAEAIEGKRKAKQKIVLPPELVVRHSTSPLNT

[2] = target: T1, IolQ-His6 (DegA) (Bacillus subtilis 168); assay: DNase I footprinting; conditions: 10 mM Tris-HCl pH 8.0, 1 mM DTT, 10 mM KCl, 5 mM MgCl2, 10% glycerol, 5 ug/ml poly d(I-C), 50 ug/ml BSA, 37 C, 30 min; DNA 0.155 pmol in 0.02 ml (EMSA) or …

Sequence: ATGAGCGGGTTTTTTCATTATGACAGTTGAAGCCAAAAAAACATATTGCGTGTAAACCAAAGGCGGTGTAAAATATAACCATCTTTTGAGAAAGCGCTTGCGCAAAATGGCAGAGCGGATAGAACCGCTGTTTTTTTAGCTGTTAAGAGAAAACGCTTTCTCAAAGCGAGCCCGAAATGAGATAAAGGAGAGGATGGGAC (double strand) [iolX promoter 200 bp]
- binding [1]: binds

Sequence: GAGCTTGTAGTCAGACATTCTACATCACCGCTCAACACATGAGCCCGCTAATGAGCGGGTTTTTTCATTATGACAGTTGAAGCCAAAAAAACATATTGCGTGTAAACCAAAGGCGGTGTAAAATATAACCATCTTTTGAGAAAGCGCTTGCGCAAAATGGCAGAGCGGATAGAACCGCTGTTTTTTTAGCTGTTAAGAGAAAACGCTTTCTCAAAGCGAGCCCGAAATGAGATAAAGGAGAGGATGGGACGTGGAACATCAAGTAAGATGTGCAGTATTGGGATTAGGAAGGCTCGGTTA (double strand) [iolX promoter 300 bp footprint probe, high affinity region]
- binding [2]: binds

Source: paper PMC5504672
